Laboratory results taken from the supplement of paper PMC10724198.
± gives the standard deviation of the averaged measurements.
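Also: PSI is a weighted mean of sequencing reads over stability bins, variants kept only with over 10 reads, mCherry proximal and sfGFP distal, peptide attached via GGGS linker.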

These sequences were tested on Saccharomyces cerevisiae (assay: protein stability index of tFT-peptide fusion (C-terminal peptide) (PSI (0-1 scale)); higher = more stable (slower turnover)). Settings: genetic background: das1 deletion; temperature: 30 C.
Method: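 MPS profiling in S. cerevisiae of the tFT-X12 degron library: putative degron peptides plus stable controls, 12 aa, fused to the C-terminus of a sfGFP-mCherry timer. Cells are FACS-sorted into 8 mCherry/sfGFP bins and deep-sequenced. PSI runs from 0 (unstable) to 1 (stable). Backgrounds are wild type, das1Δ and doa10Δ at 30 °C, and wild type, das1Δ, cdc34-1 and cdc53-1 at 37 °C; 2-3 technical replicates each.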
For GTVRSLLKWRCS, the protein stability index was 0.651 ± 0.027. GVCLGFICVGFC was tested, and the protein stability index was 0.359 ± 0.031. GVCWCVLFVVGC gave a protein stability index of 0.271 ± 0.027. Work on GVYFIGISRCVC yielded a protein stability index of 0.529 ± 0.029. Work on GVYRLCLLLLVY yielded a protein stability index of 0.183 ± 0.014. GWRGVVLVFVLV showed a protein stability index of 0.28 ± 0.027. Work on GWSRRFFCLFIV yielded a protein stability index of 0.345 ± 0.041. With GWWCGIGVAVSV the protein stability index was 0.337 ± 0.03. In the case of HHACLLPVRKAG, the protein stability index is reported as 0.6526 ± 0.00091. With HLAQYSSSLHLM the protein stability index was 0.653 ± 0.0071. Work on HPPPPPPPPSLS yielded a protein stability index of 0.666 ± 0.028. Sequence IACVLSIFLNAA has a protein stability index of 0.292 ± 0.039. With ICQFFFFALLSF the protein stability index was 0.164 ± 0.016. In the case of IDSEVHLWKRSA, the protein stability index is reported as 0.642 ± 0.017. With IFAVLVSGSFFF the protein stability index was 0.324 ± 0.051. IFLGFGPLFGRL showed a protein stability index of 0.727 ± 0.03. IGSFFLFFLLIF was tested, and the protein stability index was 0.3 ± 0.025. Work on IIIGTLLYVNVR yielded a protein stability index of 0.243 ± 0.03. For IKRLKEVARHVS, the protein stability index was 0.645 ± 0.03. With ILGQSVIMRIKM the protein stability index was 0.615 ± 0.027. ILLICLQFFNLF was tested, and the protein stability index was 0.394 ± 0.035. In the case of ILRIYIPRWRRQ, the protein stability index is reported as 0.62 ± 0.02. INKKKKMIITKI was tested, and the protein stability index was 0.662 ± 0.073. IPRSCRIRLAVL showed a protein stability index of 0.562 ± 0.032. Work on IQICLNRLRLFH yielded a protein stability index of 0.63 ± 0.016. IRACGCSFLWVC was tested, and the protein stability index was 0.5 ± 0.026. IRLCAASFMVVF gave a protein stability index of 0.414 ± 0.023. IRSRGLLIRWLS showed a protein stability index of 0.616 ± 0.026. In the case of IVCAVTSIFLFF, the protein stability index is reported as 0.288 ± 0.014. Sequence IVRSLFGYLCVV has a protein stability index of 0.524 ± 0.015. For KCVVMFFLRSVS, the protein stability index was 0.529 ± 0.037. Work on KFFRSWVLTSPA yielded a protein stability index of 0.427 ± 0.032. For KFRGMTLRNKVC, the protein stability index was 0.657 ± 0.019. In the case of KHTGTGNAPNCD, the protein stability index is reported as 0.649 ± 0.013. In the case of KIKKLKNRRKLV, the protein stability index is reported as 0.625 ± 0.0071. KKKKQKKNNNKR was tested, and the protein stability index was 0.676 ± 0.083. For KLKDLTRIKIFR, the protein stability index was 0.666 ± 0.031. For KRARVIWKLVVV, the protein stability index was 0.408 ± 0.024. KRMVEKNKKKIN showed a protein stability index of 0.613 ± 0.029. In the case of KSSIGVWTLLIR, the protein stability index is reported as 0.337 ± 0.026. KSTLVRILVFHV gave a protein stability index of 0.458 ± 0.028. With KYKANLGNLKVH the protein stability index was 0.632 ± 0.019. Work on LAPPFPVVLTPA yielded a protein stability index of 0.263 ± 0.036. LCGGEWVVWVKG showed a protein stability index of 0.557 ± 0.02. LCIFFWFSSFFL was tested, and the protein stability index was 0.4 ± 0.021. In the case of LCLICLFLLKVL, the protein stability index is reported as 0.395 ± 0.03. With LCRCPVGVFVLL the protein stability index was 0.39 ± 0.038. With LCVVFCIRTYRV the protein stability index was 0.259 ± 0.038. LCYVLLWLLCRS gave a protein stability index of 0.349 ± 0.024. LDLPFESGIACF showed a protein stability index of 0.259 ± 0.032. LEGLLIRVYITF gave a protein stability index of 0.178 ± 0.019. For LFFFLFSLLIFF, the protein stability index was 0.349 ± 0.044. LFFFRLFVFWVF showed a protein stability index of 0.238 ± 0.021. Sequence LFFFSFSFLFFL has a protein stability index of 0.302 ± 0.015. LFFFVFFVLFSV gave a protein stability index of 0.218 ± 0.013. In the case of LFFRLLCAFLFL, the protein stability index is reported as 0.499 ± 0.047. With LFFVFCLFFIYF the protein stability index was 0.235 ± 0.024. In the case of LFHSIPRLLLLK, the protein stability index is reported as 0.23 ± 0.087. Sequence LFKFCLGIPLFL has a protein stability index of 0.412 ± 0.037. LFLSAFFYLLVW showed a protein stability index of 0.245 ± 0.029. Work on LFLVLFCVVGFV yielded a protein stability index of 0.226 ± 0.027. With LFSFFVFFFLLD the protein stability index was 0.364 ± 0.044. With LFTRWSILFKLF the protein stability index was 0.559 ± 0.032. Work on LGDPPCRMIVVR yielded a protein stability index of 0.353 ± 0.038. In the case of LGGVEDRWRTAT, the protein stability index is reported as 0.693 ± 0.032. LGRLDYKRMKRA was tested, and the protein stability index was 0.641 ± 0.033. LGSYIFVVVIYF gave a protein stability index of 0.168 ± 0.032. LGSYVWVFVYFW gave a protein stability index of 0.155 ± 0.039. In the case of LHIHGAGIVCAG, the protein stability index is reported as 0.368 ± 0.032. Sequence LICRFLFFVCVG has a protein stability index of 0.377 ± 0.023. LILLTFTLRVPV gave a protein stability index of 0.233 ± 0.02. Work on LLCLCSLPVFAS yielded a protein stability index of 0.26 ± 0.046. In the case of LLFLLSPFNFAV, the protein stability index is reported as 0.63 ± 0.022. For LLFTFSLSFFFR, the protein stability index was 0.445 ± 0.048. With LLLHFMFSIFWF the protein stability index was 0.327 ± 0.034. LLMWVLFDCHYS gave a protein stability index of 0.318 ± 0.035. LLPTSVFLPSLF gave a protein stability index of 0.663 ± 0.012. LLRIFLPLLYLL gave a protein stability index of 0.329 ± 0.037.

Same assay, conditions: genetic background: das1 deletion; temperature: 37 C
Sequence GTVRSLLKWRCS has a protein stability index of 0.7431 ± 0.0073. GVCLGFICVGFC showed a protein stability index of 0.576 ± 0.032. Sequence GVCWCVLFVVGC has a protein stability index of 0.484 ± 0.006. Work on GVYFIGISRCVC yielded a protein stability index of 0.669 ± 0.0011. GVYRLCLLLLVY gave a protein stability index of 0.239 ± 0.021. GWRGVVLVFVLV showed a protein stability index of 0.47443 ± 1.3e-05. Work on GWSRRFFCLFIV yielded a protein stability index of 0.4984 ± 0.0011. With GWWCGIGVAVSV the protein stability index was 0.5114 ± 0.0051. In the case of HHACLLPVRKAG, the protein stability index is reported as 0.744 ± 0.0085. Sequence HLAQYSSSLHLM has a protein stability index of 0.731 ± 0.027. Work on HPPPPPPPPSLS yielded a protein stability index of 0.7362 ± 0.0017. For IACVLSIFLNAA, the protein stability index was 0.435 ± 0.0047. With ICQFFFFALLSF the protein stability index was 0.244 ± 0.021. Work on IDSEVHLWKRSA yielded a protein stability index of 0.719 ± 0.037. For IFAVLVSGSFFF, the protein stability index was 0.545 ± 0.017. Work on IFLGFGPLFGRL yielded a protein stability index of 0.817 ± 0.034. Work on IGSFFLFFLLIF yielded a protein stability index of 0.383 ± 0.0054. IIIGTLLYVNVR gave a protein stability index of 0.403 ± 0.012. In the case of IKRLKEVARHVS, the protein stability index is reported as 0.694 ± 0.0085. Work on ILGQSVIMRIKM yielded a protein stability index of 0.7007 ± 0.00077. With ILLICLQFFNLF the protein stability index was 0.5269 ± 0.0039. Work on ILRIYIPRWRRQ yielded a protein stability index of 0.7292 ± 0.0032. INKKKKMIITKI was tested, and the protein stability index was 0.742 ± 0.063. In the case of IPRSCRIRLAVL, the protein stability index is reported as 0.7175 ± 0.0055. For IQICLNRLRLFH, the protein stability index was 0.7002 ± 0.0018. Work on IRACGCSFLWVC yielded a protein stability index of 0.678 ± 0.0079. In the case of IRLCAASFMVVF, the protein stability index is reported as 0.5352 ± 0.0027. Work on IRSRGLLIRWLS yielded a protein stability index of 0.721 ± 0.011. IVCAVTSIFLFF gave a protein stability index of 0.452 ± 0.016. IVRSLFGYLCVV gave a protein stability index of 0.633 ± 0.0095. In the case of KCVVMFFLRSVS, the protein stability index is reported as 0.676 ± 0.022. KFFRSWVLTSPA was tested, and the protein stability index was 0.6157 ± 0.0025. Work on KFRGMTLRNKVC yielded a protein stability index of 0.717 ± 0.017. KHTGTGNAPNCD showed a protein stability index of 0.719 ± 0.011. Sequence KIKKLKNRRKLV has a protein stability index of 0.7297 ± 0.003. In the case of KKKKQKKNNNKR, the protein stability index is reported as 0.755 ± 0.034. KLKDLTRIKIFR was tested, and the protein stability index was 0.6989 ± 0.0069. KRARVIWKLVVV showed a protein stability index of 0.583 ± 0.006. KRMVEKNKKKIN showed a protein stability index of 0.729 ± 0.024. With KSSIGVWTLLIR the protein stability index was 0.454 ± 0.022. KSTLVRILVFHV gave a protein stability index of 0.646 ± 0.044. For KYKANLGNLKVH, the protein stability index was 0.725 ± 0.029. For LAPPFPVVLTPA, the protein stability index was 0.4137 ± 0.00012. With LCGGEWVVWVKG the protein stability index was 0.721 ± 0.012. For LCIFFWFSSFFL, the protein stability index was 0.5337 ± 0.0052. In the case of LCLICLFLLKVL, the protein stability index is reported as 0.586 ± 0.0076. LCRCPVGVFVLL gave a protein stability index of 0.5395 ± 0.0021. In the case of LCVVFCIRTYRV, the protein stability index is reported as 0.476 ± 0.044. In the case of LCYVLLWLLCRS, the protein stability index is reported as 0.512 ± 0.0074. LDLPFESGIACF was tested, and the protein stability index was 0.436 ± 0.027. Sequence LEGLLIRVYITF has a protein stability index of 0.3361 ± 0.00094. For LFFFLFSLLIFF, the protein stability index was 0.362 ± 0.0094. LFFFRLFVFWVF showed a protein stability index of 0.369 ± 0.01. In the case of LFFFSFSFLFFL, the protein stability index is reported as 0.411 ± 0.00085. Sequence LFFFVFFVLFSV has a protein stability index of 0.3319 ± 0.0017. In the case of LFFRLLCAFLFL, the protein stability index is reported as 0.584 ± 0.017. For LFFVFCLFFIYF, the protein stability index was 0.301 ± 0.0074. For LFHSIPRLLLLK, the protein stability index was 0.27 ± 0.04. With LFKFCLGIPLFL the protein stability index was 0.576 ± 0.006. LFLSAFFYLLVW gave a protein stability index of 0.341 ± 0.0047. With LFLVLFCVVGFV the protein stability index was 0.377 ± 0.0076. LFSFFVFFFLLD showed a protein stability index of 0.522 ± 0.031. LFTRWSILFKLF was tested, and the protein stability index was 0.694 ± 0.052. With LGDPPCRMIVVR the protein stability index was 0.5869 ± 0.0044. For LGGVEDRWRTAT, the protein stability index was 0.7227 ± 0.0051. LGRLDYKRMKRA was tested, and the protein stability index was 0.7434 ± 0.0068. LGSYIFVVVIYF gave a protein stability index of 0.291 ± 0.0044. Work on LGSYVWVFVYFW yielded a protein stability index of 0.323 ± 0.01. Sequence LHIHGAGIVCAG has a protein stability index of 0.5788 ± 0.001. For LICRFLFFVCVG, the protein stability index was 0.507 ± 0.0068. LILLTFTLRVPV showed a protein stability index of 0.4028 ± 0.0024. Work on LLCLCSLPVFAS yielded a protein stability index of 0.4118 ± 0.0028. With LLFLLSPFNFAV the protein stability index was 0.737 ± 0.0093. For LLFTFSLSFFFR, the protein stability index was 0.438 ± 0.0076. Work on LLLHFMFSIFWF yielded a protein stability index of 0.4583 ± 0.0021. With LLMWVLFDCHYS the protein stability index was 0.552 ± 0.011. With LLPTSVFLPSLF the protein stability index was 0.768 ± 0.014. In the case of LLRIFLPLLYLL, the protein stability index is reported as 0.387 ± 0.016.
